B1: MXI1 peptide 6-21 (Max-interacting protein 1), 16-mer library wild type / SIN3A PAH2 (SIN3A PAH domain, residues 295-383) (parent complex)
chain 1: MINVQRLLEAAEFLER
chain 2: SLQNNQPVEFNHAINYVNKIKNRFQGQPDIYKAFLEILHTYQKEQRNAKEAGGNYTPALTEQEVYAQVARLFKNQEDLLSEFGQFLPDA

Variants of B1 are the subject of the assay. Description: proteomic peptide phage display deep mutational scan (ProP-PD DMS): M13 P8 16-mer library selected against immobilised GST-tagged bait for four days (rounds), NGS of the eluted pools per day and pseudo-replica; bait immobilised on MaxiSorp plates (10 µg), library pre-cleared on GST, 2 h binding at 4 °C, five washes; one round per day, days 1-4; value from days 2 and 3.
Turning to chain 1 MPNVQRLLEAAEFLER [chain 1 I2P], the screen value was 0.000427 average fractional NGS count over selection days 2 and 3 (reads of this peptide / all reads for the bait, averaged over ….

As to chain 1 MENVQRLLEAAEFLER [chain 1 I2E], the screen value is 0.00021 average fractional NGS count over selection days 2 and 3 (reads of this peptide / all reads for the bait, averaged over …. Regarding chain 1 MLNVQRLLEAAEFLER [chain 1 I2L], the screen value was 0.000364 average fractional NGS count over selection days 2 and 3 (reads of this peptide / all reads for the bait, averaged over …. The same measure for chain 1 MYNVQRLLEAAEFLER [chain 1 I2Y]: 0.00134 average fractional NGS count over selection days 2 and 3 (reads of this peptide / all reads for the bait, averaged over …; for chain 1 MSNVQRLLEAAEFLER [chain 1 I2S]: 0.000713 average fractional NGS count over selection days 2 and 3 (reads of this peptide / all reads for the bait, averaged over …; for chain 1 MANVQRLLEAAEFLER [chain 1 I2A]: 0.00266 average fractional NGS count over selection days 2 and 3 (reads of this peptide / all reads for the bait, averaged over …. The figure for chain 1 MINVQGLLEAAEFLER [chain 1 R6G] is 0.000834 average fractional NGS count over selection days 2 and 3 (reads of this peptide / all reads for the bait, averaged over …. The figure for chain 1 MINVQALLEAAEFLER [chain 1 R6A] is 0.00198 average fractional NGS count over selection days 2 and 3 (reads of this peptide / all reads for the bait, averaged over …. chain 1 MINVQVLLEAAEFLER [chain 1 R6V]: the screen value is 0.000218 average fractional NGS count over selection days 2 and 3 (reads of this peptide / all reads for the bait, averaged over ….

Regarding chain 1 DINVQRLLEAAEFLER [chain 1 M1D], the screen value was 9.92e-05 average fractional NGS count over selection days 2 and 3 (reads of this peptide / all reads for the bait, averaged over …. Consider chain 1 PINVQRLLEAAEFLER [chain 1 M1P], for which the screen value is 0.000146 average fractional NGS count over selection days 2 and 3 (reads of this peptide / all reads for the bait, averaged over …. The same measure for chain 1 FINVQRLLEAAEFLER [chain 1 M1F]: 0.000314 average fractional NGS count over selection days 2 and 3 (reads of this peptide / all reads for the bait, averaged over …; for chain 1 YINVQRLLEAAEFLER [chain 1 M1Y]: 0.000304 average fractional NGS count over selection days 2 and 3 (reads of this peptide / all reads for the bait, averaged over …; for chain 1 KINVQRLLEAAEFLER [chain 1 M1K]: 0.000747 average fractional NGS count over selection days 2 and 3 (reads of this peptide / all reads for the bait, averaged over …. The figure for chain 1 MINVQRLLEAAEYLER [chain 1 F13Y] is 0.00195 average fractional NGS count over selection days 2 and 3 (reads of this peptide / all reads for the bait, averaged over …; for chain 1 MINVQRLLEAAEVLER [chain 1 F13V] it is 0.000201 average fractional NGS count over selection days 2 and 3 (reads of this peptide / all reads for the bait, averaged over …; for chain 1 MINVQRLLEAAENLER [chain 1 F13N] it is 0.00134 average fractional NGS count over selection days 2 and 3 (reads of this peptide / all reads for the bait, averaged over …. With chain 1 MINVQRLLEAAELLER [chain 1 F13L], the screen value is 0.00028 average fractional NGS count over selection days 2 and 3 (reads of this peptide / all reads for the bait, averaged over ….

For chain 1 MINVQRLLEAAEQLER [chain 1 F13Q], the screen value was 0.00155 average fractional NGS count over selection days 2 and 3 (reads of this peptide / all reads for the bait, averaged over …. The figure for chain 1 MINVQRLLEAAERLER [chain 1 F13R] is 0.00192 average fractional NGS count over selection days 2 and 3 (reads of this peptide / all reads for the bait, averaged over …; for chain 1 MINVQRLLEAAEGLER [chain 1 F13G] it is 0.00169 average fractional NGS count over selection days 2 and 3 (reads of this peptide / all reads for the bait, averaged over ….

In the case of chain 1 MINVQRLLEAAEWLER [chain 1 F13W], the screen value is 0.00114 average fractional NGS count over selection days 2 and 3 (reads of this peptide / all reads for the bait, averaged over ….

For the variant chain 1 MINVQRYLEAAEFLER [chain 1 L7Y], the screen value is 0.00109 average fractional NGS count over selection days 2 and 3 (reads of this peptide / all reads for the bait, averaged over …. In the case of chain 1 MINVQRWLEAAEFLER [chain 1 L7W], the screen value was 0.00101 average fractional NGS count over selection days 2 and 3 (reads of this peptide / all reads for the bait, averaged over …. The figure for chain 1 MINVSRLLEAAEFLER [chain 1 Q5S] is 0.000556 average fractional NGS count over selection days 2 and 3 (reads of this peptide / all reads for the bait, averaged over …. The same measure for chain 1 MINVFRLLEAAEFLER [chain 1 Q5F]: 0.000275 average fractional NGS count over selection days 2 and 3 (reads of this peptide / all reads for the bait, averaged over …; for chain 1 MINVHRLLEAAEFLER [chain 1 Q5H]: 0.00355 average fractional NGS count over selection days 2 and 3 (reads of this peptide / all reads for the bait, averaged over …. The same measure for chain 1 MINVARLLEAAEFLER [chain 1 Q5A]: 0.000986 average fractional NGS count over selection days 2 and 3 (reads of this peptide / all reads for the bait, averaged over …; for chain 1 MINVYRLLEAAEFLER [chain 1 Q5Y]: 0.00574 average fractional NGS count over selection days 2 and 3 (reads of this peptide / all reads for the bait, averaged over …; for chain 1 MINVMRLLEAAEFLER [chain 1 Q5M]: 0.000803 average fractional NGS count over selection days 2 and 3 (reads of this peptide / all reads for the bait, averaged over ….

Take chain 1 MINVQRLHEAAEFLER [chain 1 L8H]: the screen value is 0.000323 average fractional NGS count over selection days 2 and 3 (reads of this peptide / all reads for the bait, averaged over …. The figure for chain 1 MINVQRLVEAAEFLER [chain 1 L8V] is 0.000127 average fractional NGS count over selection days 2 and 3 (reads of this peptide / all reads for the bait, averaged over …; for chain 1 MINVQRLYEAAEFLER [chain 1 L8Y] it is 0.000651 average fractional NGS count over selection days 2 and 3 (reads of this peptide / all reads for the bait, averaged over …; for chain 1 MINVQRLQEAAEFLER [chain 1 L8Q] it is 0.000344 average fractional NGS count over selection days 2 and 3 (reads of this peptide / all reads for the bait, averaged over …. With chain 1 MINVQRLGEAAEFLER [chain 1 L8G], the screen value is 0.000132 average fractional NGS count over selection days 2 and 3 (reads of this peptide / all reads for the bait, averaged over …. The same measure for chain 1 MINVQRLTEAAEFLER [chain 1 L8T]: 0.000156 average fractional NGS count over selection days 2 and 3 (reads of this peptide / all reads for the bait, averaged over …; for chain 1 MINVQRLLEAAEFLKR [chain 1 E15K]: 0.000258 average fractional NGS count over selection days 2 and 3 (reads of this peptide / all reads for the bait, averaged over …; for chain 1 MINVQRLLEAAEFLPR [chain 1 E15P]: 0.000251 average fractional NGS count over selection days 2 and 3 (reads of this peptide / all reads for the bait, averaged over …. The figure for chain 1 MINVQRLLEAAEFLLR [chain 1 E15L] is 0.0492 average fractional NGS count over selection days 2 and 3 (reads of this peptide / all reads for the bait, averaged over …; for chain 1 MINVQRLLEAAEFLRR [chain 1 E15R] it is 0.000127 average fractional NGS count over selection days 2 and 3 (reads of this peptide / all reads for the bait, averaged over …. Regarding chain 1 MINVQRLLEAAEFLQR [chain 1 E15Q], the screen value is 0.000842 average fractional NGS count over selection days 2 and 3 (reads of this peptide / all reads for the bait, averaged over …. The same measure for chain 1 MINVQRLLEAAEFLYR [chain 1 E15Y]: 0.0114 average fractional NGS count over selection days 2 and 3 (reads of this peptide / all reads for the bait, averaged over …; for chain 1 MINVQRLLEAAEFLHR [chain 1 E15H]: 0.00272 average fractional NGS count over selection days 2 and 3 (reads of this peptide / all reads for the bait, averaged over …; for chain 1 MINVQRLLEAAEFLWR [chain 1 E15W]: 0.00827 average fractional NGS count over selection days 2 and 3 (reads of this peptide / all reads for the bait, averaged over …. The same measure for chain 1 MINVQRLLEAAEFLNR [chain 1 E15N]: 0.000504 average fractional NGS count over selection days 2 and 3 (reads of this peptide / all reads for the bait, averaged over …. For the variant chain 1 MINVQRLLEAAEFLMR [chain 1 E15M], the screen value is 8.82e-05 average fractional NGS count over selection days 2 and 3 (reads of this peptide / all reads for the bait, averaged over …. The same measure for chain 1 MINTQRLLEAAEFLER [chain 1 V4T]: 0.00342 average fractional NGS count over selection days 2 and 3 (reads of this peptide / all reads for the bait, averaged over …; for chain 1 MINIQRLLEAAEFLER [chain 1 V4I]: 0.000288 average fractional NGS count over selection days 2 and 3 (reads of this peptide / all reads for the bait, averaged over ….

Regarding chain 1 MINWQRLLEAAEFLER [chain 1 V4W], the screen value was 0.00027 average fractional NGS count over selection days 2 and 3 (reads of this peptide / all reads for the bait, averaged over …. For chain 1 MINAQRLLEAAEFLER [chain 1 V4A], the screen value is 0.000356 average fractional NGS count over selection days 2 and 3 (reads of this peptide / all reads for the bait, averaged over …. With chain 1 MINNQRLLEAAEFLER [chain 1 V4N], the screen value is 0.000273 average fractional NGS count over selection days 2 and 3 (reads of this peptide / all reads for the bait, averaged over …. The figure for chain 1 MINVQRLLEAAEFMER [chain 1 L14M] is 0.000829 average fractional NGS count over selection days 2 and 3 (reads of this peptide / all reads for the bait, averaged over ….

In the case of chain 1 MINVQRLLEAAEFWER [chain 1 L14W], the screen value was 0.000239 average fractional NGS count over selection days 2 and 3 (reads of this peptide / all reads for the bait, averaged over …. On to chain 1 MINVQRLLEAAEFYER [chain 1 L14Y], for which the screen value is 0.00247 average fractional NGS count over selection days 2 and 3 (reads of this peptide / all reads for the bait, averaged over …. Consider chain 1 MINVQRLLEAAEFHER [chain 1 L14H], for which the screen value is 0.00159 average fractional NGS count over selection days 2 and 3 (reads of this peptide / all reads for the bait, averaged over …. The same measure for chain 1 MINVQRLLEAHEFLER [chain 1 A11H]: 0.000274 average fractional NGS count over selection days 2 and 3 (reads of this peptide / all reads for the bait, averaged over ….
